Where a chain is given by its changes, count along the chain named.
B1: KL2B242 (Fab): anti-hK2 antibody; VH SEQ ID NO: 166, VL SEQ ID NO: 167 (antibody, V domains shown)
VH: QVQLQESGPGLVKPSETLSLTCTVSGGSISSYYWSWLRQPAGSGLEWIGRLYVSGFTNYNPSLKSRVTLSLDPSRNQLSLKLSSVTAADTAVYYCAGDSGNYWGWFDPWGQGTLVTVSS
VL: SYELTQPPSVSVSPGETASITCSGDQLGENYACWYQQKPGQSPVLVIYQDSKRPSGIPERFSGSNSGNTATLTISGTQALDEADYYCQAWDNSIVVFGGGTKLTVL
B2: KL2B467 (Fab): anti-hK2 antibody from OmniRat immunization; VH SEQ ID NO: 168, VL SEQ ID NO: 169 (antibody, V domains shown)
VH: QVQLVESGGGVVQPGRSLRLSCAASGFTFSYYGMHWVRQAPGKGLEWVAFISYDGSNKYYADSVKGRFTISRDNSKNTLYLQMNSLRAEDTAVYYCAHLPYSGSYWAFDYWGQGTQVTVSS
VL: QSVLTQPPSVSVAPGQTASITCGGDNIGSKSVHWYQQKPGQAPVLVVYDNSDRPSGIPERFSGSNSGTTATLTISRVEAGDEADYYCQVWDSSSDHPVVFGGGTKVTV
B3: KL2B359 (scFv-LH-Fc): anti-hK2 clone from the re-humanization campaign of 11B6; VH SEQ ID NO: 139, VL SEQ ID NO: 140 (protein)
scFv: EIVLTQSPATLSLSPGERATLSCRASESVEYFGTSLMHWYQQKPGQPPRLLIYAASNVESGIPARFSGSGSGTDFTLTISSVEPEDFAVYFCQQTRKVPYTFGGGTKVEIKGGSEGKSSGSGSESKSTGGSQVQLQESGPGLVKPSQTLSLTCTVSGNSITSDYAWNWIRQFPGKRLEWIGYISYSGSTTYNPSLKSRVTISRDTSKNQFSLKLSSVTAADTAVYYCATGYYYGSGFWGQGTLVTVSS
modifications: left off: a dimerising Fc or GST; small tags and cut ends
B4: KL2B53 (Fab): anti-hK2 antibody; VH SEQ ID NO: 164, VL SEQ ID NO: 165 (antibody, V domains shown)
VH: EVQLVESGGGVVQPGRSLRLSCVASGFTFSSYDIHWVRQAPGKGLEWVAIISYDGSKKDYTDSVKGRFTISRDNSKNTLYLQMDSLRVEDSAVYSCARESGWSHYYYYGMDVWGQGTMVTVSS
VL: DIVMTQSPSSLSASVGDRVTITCRASQDISNYLAWYQQKPGKVPKFLIYAASTLHSGVPSRFSGSGSGTDFTLTISSLQPEDVATYYCQKYNSAPYTFGQGTRLEIK
B5: KL2B413 (scFv-LH-Fc): anti-hK2 antibody from Ablexis mice immunization; VH SEQ ID NO: 137, VL SEQ ID NO: 138 (protein)
chain 1: EVQLVESGGGLVQPGGSLRLSCAASGFTFSSYWMTWVRQAPGKGLEWVANIKQDGSERYYVDSVKGRFTISRDNAKNSLYLQMNSLRAEDTAVYYCARDQNYDILTGHYGMDVWGQGTTVTVSS
chain 2: EIVLTQSPSFLSASVGDRVTITCRASQGISSYLSWYQQKPGKAPKLLIYATSTLQSGVPSRFSGSGSGTEFTLTISSLQPEDFATYYCQQLNSYPRTFGQGTKVEIK
B6: KL2B997 SORT: KL2B997 site-specific ADC prepared via the sortase tag with Gly3-vcMMAF (conjugate)
heavy: QVQLQESGPGLVKPSETLSLTCTVSGGSISSYYWSWIRQPPGKGLEWIGYIYYSGSTNYNPSLKSRVTISVDTSKNQFSLKLSSVTAADTAVYYCAGTTIFGVVTPNFYYGMDVWGQGTTVTVSS
light: B5 chain 2 with E1D, V3Q, L4M, S34A, L46F, T51A, R96L, Q100G
modifications: left off: a dimerising Fc or GST; large carriers
notes: KL2B997 site-specific ADC prepared via the sortase tag with Gly3-vcMMAF

Experiments:
[1] = Thermal stability by Differential Scanning Fluorimetry (NanoDSF); assay type: physicochemical; details: 0.5 mg/mL in Phosphate Buffered Saline pH 7.4, 20-95 ° C. at 1.0 ° C./minute
Procedure: Thermal stability was determined by Differential Scanning Fluorimetry (NanoDSF) using an automated Prometheus instrument. NanoDSF was used to measure Tm of molecules at a concentration of 0.5 mg/mL in Phosphate Buffered Saline, pH 7.4. Measurements were made by loading samples into 24 well capillary from a 384 well sample plate. Duplicate runs were performed for each sample. The thermal scans span from 20° C., to 95° C. at a rate of 1.0° C./minute. Intrinsic tryptophan and tyrosine fluorescence were monitored at the emission wavelengths of 330 nm and 350 nm, and the F350/F330 nm ratio were plotted against temperature to generate unfolding curves.

soluble hK2 = soluble hK2 (Homo sapiens, UniProt P20151); assay: Affinity of hK2 antibodies for soluble hK2 by surface plasmon resonance (SPR); assay type: binding; details: antibody captured on anti-Fc chip, soluble hK2 injected, 1:1 Langmuir fit, KD = koff/kon
Procedure: Affinity of selected hK2 antibodies for soluble hK2 was measured by surface plasmon resonance (SPR). SPR is a label-free technique to study the strength of an interaction between two binding partners by measuring the change in mass upon complex formation and dissociation. Antibodies were captured on a sensor chip coated with an anti-Fc antibody followed by injection of soluble hK2 at various concentrations and specified association and dissociation times. Post dissociation, the surface was regenerated with an appropriate solution to prepare for the next interaction. Kinetic information (on-rate and off-rate constants) were extracted by fitting sensorgrams to the 1:1 Langmuir model. Binding affinity (KD) are reported as the ratio of rate constants (koff/kon).

hK2-positive VCaP cells = assay: Target cell binding by flow cytometry, hK2-positive cells; assay type: cell-based; details: 4° C. 60 minutes, anti-Human F(ab′)2 secondary detection, live cells
Text: To evaluate target cell binding of the KL2B30 Fab with different conjugation variants, VCaP cells were used as hK2-positive target cells and DU145 cells were used as hK2-negative cells. KL2B30 parental antibody (comprising a heavy chain and light chain of SEQ ID NO: 210 and SEQ ID NO: 221, respectively) and hul1B6 (an anti-hK2 antibody, also referred to herein as h11B6, comprising a heavy chain and light chain of SEQ ID NO: 203 and SEQ ID NO: 215, respectively) were included as positive controls. The h11B6 antibody is described in U.S. Pat. No. 10,100,125, which is incorporated by reference herein. An anti-Human F(ab′)2 fragment specific secondary detection antibody was used for detecting Fab-based binding. Test antibodies were incubated with target cells at 4° C. for 60 minutes and detected by secondary staining. Cell binding was quantified by flow cytometry based on secondary antibody binding signal and gated from on live cells.

soluble hK2, sequence (P20151 25-261): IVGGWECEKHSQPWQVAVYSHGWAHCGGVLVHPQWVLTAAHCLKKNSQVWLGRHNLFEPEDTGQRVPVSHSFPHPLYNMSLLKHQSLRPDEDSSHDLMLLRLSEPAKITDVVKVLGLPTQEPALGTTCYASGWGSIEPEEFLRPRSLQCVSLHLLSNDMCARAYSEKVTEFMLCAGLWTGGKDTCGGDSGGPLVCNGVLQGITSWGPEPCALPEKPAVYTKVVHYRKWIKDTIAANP

| Molecule | Tm (° C.) [1] | other results |
| --- | --- | --- |
| B1 | >70 °C |  |
| B2 | >70 °C |  |
| B3 | 67 °C |  |
| B4 | >70 °C |  |
| B5 |  | Kd (soluble hK2): 34.3 nM; Kd (soluble hK2; listed as KL2B413 scFv): ~34 nM |
| B6 |  | cell binding to hK2-positive VCaP cells (hK2-positive VCaP cells): positive and dose-dependent cell binding |

Source: US20250325718A1, “IMMUNOCONJUGATES COMPRISING KALLIKREIN RELATED PEPTIDASE 2 ANTIGEN BINDING DOMAINS AND THEIR USES” (Janssen Biotech, Inc., priority 2021, published 2025)
